The values that follow come from article PMC5617326 (ACS Catalysis, 2017).

Data set [1] concerns the molecule itself. Nature of the data set: crystal structure; bCinS co-crystallised with 2 mM FNPP (Morpheus II A4, pH 6.5), also soaked with 2 mM FGPP; space group P1, two molecules in the asymmetric unit; interface analysed with PISA.
Data set [2] concerns the molecule itself. As to the kind of experiment: crystal structure; bLinS apo (25% w/v PEG3350) and co-crystallised with 2 mM FGPP (Morpheus D7, pH 7.5); space group I4, two molecules in the asymmetric unit.

B1: 1,8-cineole synthase from Streptomyces clavuligerus (enzyme, Streptomyces clavuligerus ATCC 27064, UniProt B5GMG2 1-330, looked up)
chain: MPAGHEEFDIPFPSRVNPFHARAEDRHVAWMRAMGLITGDAAEATYRRWSPAKVGARWFYLAQGEDLDLGCDIFGWFFAYDDHFDGPTGTDPRQTAAFVNRTVAMLDPRADPTGEHPLNIAFHDLWQRESAPMSPLWQRRAVDHWTQYLTAHITEATNRTRHTSPTIADYLELRHRTGFMPPLLDLIERVWRAEIPAPVYTTPEVQTLLHTTNQNINIVNDVLSLEKEEAHGDPHNLVLVIQHERQSTRQQALATARRMIDEWTDTFIRTEPRLPALCGRLGIPLADRTSLYTAVEGMRAAIRGNYDWCAETNRYAVHRPTGTGRATTPW
The term stoichiometry N denotes a count of units in the complex or per binding partner. Regarding B1, the “stoichiometry N” value in data set [1] worked out at 2.

B2: linalool synthase from Streptomyces clavuligerus (enzyme, Streptomyces clavuligerus ATCC 27064, UniProt D5SL78 1-329, looked up)
chain: MQEFEFAVPAPSRVSPDLARARARHLDWVHAMDLVRGEEARRRYEFSCVADIGAYGYPHATGADLDLCVDVLGWTFLFDDQFDAGDGRERDALAVCAELTDLLWKGTAATAASPPIVVAFSDCWERMRAGMSDAWRRRTVHEWVDYLAGWPTKLADRAHGAVLDPAAHLRARHRTICCRPLFALAERVGGYEVPRRAWHSSRLDGMRFTTSDAVIGMNELHSFEKDRAQGHANLVLSLVHHGGLTGPEAVTRVCDLVQGSIESFLRLRSGLPELGRALGVEGAVLDRYADALSAFCRGYHDWGRGASRYTTRDHPGDLGLENLVARSSG
For B2, the binding result in data set [2] is “binds”.
